According to patent US8796201B2 (The Board of Trustees of the Leland Stanford Junior …, priority 2002, dated 2014):

Assays:
[1] = Retention of PEP activity on lyophilization, enteric coating, storage and tabletting; format: physicochemical
Experimental: Lyophilization of M. xanthus PEP was performed as follows. The PEP was purified as described in Example 3, and concentrated to an initial concentration of 7.7 mg/ml by Tangential-Flow Filtration (TFF) using a 10K MWCO Pellicon difiltration membrane (Millipore, PLCGC10, 50 cm, Cat. No. PXC010C50). TFF (using a LabScale TFF from Millipore, Cat. No. 29751) was performed for approximately 12 hours (pressure of 50 psi (retentate)/30 psi (permeant)), with periodic addition to the reservoir of 50 mM Sodium Phosphate, 3% Sucrose pH 7.5. Thereafter, PEG-4000 was added with a target concentration of 1%. The final protein concentration was 70-100 mg/ml. This material was centrifuged, then lyophilized. The lyophilization was performed in square petri dishes (Falcon Cat. No. 35-1112) in a DuraStop lyophilizer using parameters outlined in the Table below. Typically, 0.7-0.85 mg PEP was present per mg of lyophilized material.
The enteric coating was mixed vigorously in a beaker on a stir plate. The solution was then decanted into a spray bottle. Rat capsules were carefully spread on paper towels in groups of 20 and the enteric coating solution sprayed onto the capsules. Warm air was used to partially dry the capsules before moving them to a dry paper towel where they air-dried for 30 minutes before the next coat was applied. A total of 3 coats were applied in order to cover all sides of the capsules. […]

[2] = tested on: PQPQLPYPQPQLP; experiment: Acceleration of brush border mediated digestion by exogenous endoproteases; format: biochemical, wheat
Experimental: FIG. 3. Dose dependent acceleration of brush border mediated digestion by exogenous endoproteases. […] This peptide was digested with 27 ng/μl brush border membranes, either alone, with increasing amounts of exogenous prolyl endopeptidase (PEP, specific activity 28 μU/pg) from Flavobacterium meningosepticum (US Biological, MA), or with additional elastase (E-1250, Sigma, Mo.), bromelain (B-5144, Sigma, Mo.) or papain (P-5306, Sigma, Mo.) (12). After one hour, the fraction of remaining (SEQ ID NO:4) […] (compared to the initial amount at t=0 min) was analyzed and quantified as in FIG. 1.
Alerted by the high proline content as a hallmark of most immunogenic gliadin peptides, a proline-specific endopeptidase was tested for the generation of new, free peptide termini. A literature search on available proteases led to the identification of prolyl endopeptidase (PEP) from Flavobacterium meningosepticum, which is specific for the C-terminal cleavage of prolines and readily available from recombinant sources (Yoshimoto et al. (1991) J. Biochem. 110, 873-8). The stable (SEQ ID NO:4) […] intermediate was digested with BBM in the presence of exogenous PEP. […] As little as 3.5 pg PEP/27 ng BBM protein was sufficient to double the extent of proteolysis of this gliadin fragment compared to incubation with BBM alone. In comparison, other commonly used proteases like papain, bromelain or porcine elastase were much less efficient, requiring 30-fold (papain) or 3000-fold (bromelain, elastase) higher amounts of enzyme compared to PEP to give similar results. Their proteolysis was restricted to the cleavage of the Gln^4-Leu^5 and/or Gln^11-Leu^12 bonds.
A similar preferential cleavage was found for (SEQ ID NO:1) QLQPFP^↓QPQLPY. This is in agreement with the preference of this prolyl endopeptidase for a second proline in the S2′ position (Bordusa and Jakubke (1998) Bioorg. Med. Chem. 6, 1775-80). Based on this P^↓XP motif and on the present data, up to 16 new, major cleavage sites can be predicted in the α2-gliadin sequence, a major source of immunodominant epitopes identified thus far upon PEP treatment. All of them are located in the critical N-terminal part. The internal cleavage by PEP can be expected to generate additional (otherwise inaccessible) substrates for DPP IV and DCP thereby complementing the natural assimilation process of gliadins by the BBM. Thus, the specificity of prolyl endopeptidase is ideally suited for detoxification of persistent immunoactive gliadin peptides in Celiac Sprue.

Row | Molecule | specific activity upon lyophilization [1] | preferred cleavage bond in PQPQLPYPQPQLP [2] | amount sufficient to double the extent of proteolysis of PQPQLPYPQPQLP compared to BBM alone ([2]; 27 ng/μl BBM, one hour)
1 | MX PEP: novel recombinant prolyl endopeptidase from Myxococcus xanthus (Genbank AF127082, SEQ ID NO:47) (protein, listed as Myxococcus xanthus) MSYPATRAEQVVDTLHGVQVADPYRWLEDEKAPEVQTWMTAQNAHAREALAKFPGREALAARFKELFYTDSVSTPSRRNGRFFYVRTHKDKEKAILYWRQGESGQEKVLLDPNGWSKDGTVSLGTWAVSWDGKKVAFAQKPNAADEAVLHVIDVDSGEWSKVDVIEGGKYATPKWTPDSKGFYYEWLPTDPSIKVDERPGYTTIRYHTLGTEPSKDTVVHERTGDPTTFLQSDLSRDGKYLFVYILRGWSENDVYWKRPGEKDFRLLVKGVGAKYEVHAWKDRFYVLTDEGAPRQRVFEVDPAKPARASWKEIVPEDSSASLLSVSIVGGHLSLEYLKDATSEVRVATLKGKPVRTVQLPGVGAASNLMGLEDLDDAYYVFTSFTTPRQIYKTSVSTGKSELWAKVDVPMNPEQYQVEQVFYASKDGTKVPMFVVHRKDLKRDGNAPTLLYGYGGFNVNMEANFRSSILPWLDAGGVYAVANLRGGGEYGKAWHDAGRLDKKQNVFDDFHAAAEYLVQQKYTQPKRLAIYGGSNGGLLVGAAMTQRPELYGAVVCAVPLLDMVRYHLFGSGRTWIPEYGTAEKPEDFKTLHAYSPYHHVRPDVRYPALLMMAADHDDRVDPMHARKFVAAVQNSPGNPATALLRIEANAGHGGADQVAKAIESSVDLYSFLFQVLDVQGAQGGVAAQGR | No loss of specific activity |  | 
2 | PEP: prolyl endopeptidase; Examples 1-2: from Flavobacterium meningosepticum (US Biological); Example 11: source not stated (protein, UniProt P27028 21-705, looked up) Prolyl endopeptidase: QNSNVLKYPETKKVSHTDTYFGTQVSDPYRWLEDDRAEDTKAWVQQEVKFTQDYLAQIPFRDQLKKQLMDIWNYEKISAPFKKGKYTYFSKNDGLQAQSVLYRKDAAGKTEVFLDPNKFSEKGTTSLASVSFNKKGTLVAYSISEGGSDWNKIIILDAETKKQLDETLLDVKFSGISWLGDEGFFYSSYDKPKEGSVLSGMTDKHKVYFHKLGTKQSQDELIIGGDKFPRRYIGAYVTDDQRYLVVSAANATNGNELYIKDLKNKTDFIPIITGFDSNVNVADTDGDTLYLFTDKDAPNKRLVKTTIQNPKAETWKDVIAETSEPLEINTGGGYFFATYMKDAIDQVKQYDKNGKLVRAIKLPGSGNASGFGGEKTEKDLYYSFTNYITPPTIFKYNVTTGNSEVYQKPKVKFNPENYVSEQVFYTSSDGTKIPMMISYKKGLKKDGKNPTILYSYGGFNISLQPAFSVVNAIWMENGGIYAVPNIRGGGEYGKKWHDAGTKMQKKNVFNDFIAAGEYLQKNGYTSKEYMALSGRSNGGLLVGATMTMRPDLAKVAFPGVGVLDMLRYNKFTAGAGWAYDYGTAEDSKEMFEYLKSYSPVHNVKAGTCYPSTMVITSDHDDRVVPAHSFKFGSELQAKQSCKNPILIRIETNAGHGAGRSTEQVVAENADLLSFALYEMGIKSLK |  | Pro^8-Gln^9 and to a lesser extent the Pro^6-Tyr^7 bond | 3.5 pg PEP/27 ng BBM protein
